Earlier results on two substances are cited in PMC8448686.

For one series, the target named is CD20 (Homo sapiens) (UniProt P11836). Briefly: LigandTracer.
Another series deals with HER2 (Homo sapiens) (UniProt P04626). As to the kind of experiment: LigandTracer.

UniProt P11836, sequence (P11836 whole entry): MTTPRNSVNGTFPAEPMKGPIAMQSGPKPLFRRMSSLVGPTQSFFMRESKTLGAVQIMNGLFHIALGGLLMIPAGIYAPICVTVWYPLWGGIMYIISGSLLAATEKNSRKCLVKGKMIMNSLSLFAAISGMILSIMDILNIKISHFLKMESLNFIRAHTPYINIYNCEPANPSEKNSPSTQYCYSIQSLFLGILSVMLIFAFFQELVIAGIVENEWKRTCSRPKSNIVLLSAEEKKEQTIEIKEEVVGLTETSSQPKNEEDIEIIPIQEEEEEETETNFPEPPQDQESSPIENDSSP

As usually defined, the Kd is the constant that tells how readily two partners part at equilibrium. Consider Rituximab, for which the Kd with CD20 (Homo sapiens) was 0.93 nM.
Regarding Pertuzumab, the Kd with HER2 (Homo sapiens) is 0.13 nM.
